Data published in the supplement of paper PMC5998384.

Legend:
HeLa Kyoto [1] = assay: solubility in G1/S (NP-40 vs SDS abundance) (log2 ratio); higher = more soluble; details: cell cycle stage: G1/S
HeLa Kyoto [2] = assay: solubility change mitosis vs G1/S (difference of NP-40 vs SDS log2 ratios) (log2 ratio difference); higher = more soluble in mitosis
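For solubility change mitosis vs G1/S (difference of NP-40 vs SDS log2 ratios) in this document: synchronized HeLa Kyoto cells (double thymidine block for G1/S, nocodazole release for mitosis), protein amounts in NP-40 versus SDS lysates quantified by mass spectrometry, three biological replicates.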
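For solubility in G1/S (NP-40 vs SDS abundance) in this document: HeLa Kyoto cells arrested at G1/S by double thymidine block, proteins quantified by TMT10plex mass spectrometry in mild NP-40 versus SDS extracts, three biological replicates.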

Row | Substance | solubility in G1/S (log2) (HeLa Kyoto [1]) | solubility change mitosis (log2) (HeLa Kyoto [2])
1 | MRSLRKKREKPRPEQWKGLPGPPRAPEPEDVAVPGGVDLLTLPQLCFPGGVCVATEPKEDCVHFLVLTDVCGNRTYGVVAQYYRPLHDEYCFYNGKTHRECPGCFVPFAVCVVSRFPYYNSLKDCLSCLLALLKPCKDFEVDSHIKDFAAKLSLIPSPPPGPLHLVFNMKSLQIVLPARADPESPILDLDLHLPLLCFRPEKVLQILTCILTEQRIVFFSSDWALLTLVTECFMAYLYPLQWQHPFVPILSDQMLDFVMAPTSFLMGCHLDHFEEVSKEADGLVLINIDHGSITYSKSTDDNVDIPDVPLLAAQTFIQRVQSLQLHHELHAAHLLSSTDLKEGRAHRRSWQQKLNCQIQQTTLQLLVSIFRDVKNHLNYEHRVFNSEEFLKTRAPGDHQFYKQVLDTYMFHSFLKARLNRRMDAFAQMDLDTQSEEDRINGMLLSPRRPTVEKRASRKSSHLHVTHRRMVVSMPNLQDIAMPELAPRNSSLRLTDTAGCRGSSAVLNVTPKSPYTFKIPEIHFPLESKCVQAYHAHFVSMLSEAMCFLAPDNSLLLARYLYLRGLVYLMQGQLLNALLDFQNLYKTDIRIFPTDLVKRTVESMSAPEWEGAEQAPELMRLISEILDKPHEASKLDDHVKKFKLPKKHMQLGDFMKRVQESGIVKDASIIHRLFEALTVGQEKQIDPETFKDFYNCWKETEAEAQEVSLPWLVMEHLDKNECVCKLSSSVKTNLGVGKIAMTQKRLFLLTEGRPGYLEISTFRNIEEVRRTTTTFLLRRIPTLKIRVASKKEVFEANLKTECDLWHLMVKEMWAGKKLADDHKDPHYVQQALTNVLLMDAVVGTLQSPGAIYAASKLSYFDKMSNEMPMTLPETTLETLKHKINPSAGEAFPQAVDVLLYTPGHLDPAEKVEDAHPKLWCALSEGKVTVFNASSWTIHQHSFKVGTAKVNCMVMADQNQVWVGSEDSVIYIINVHSMSCNKQLTAHCSSVTDLIVQDGQEAPSNVYSCSMDGMVLVWNVSTLQVTSRFQLPRGGLTSIRLHGGRLWCCTGNSIMVMKMNGSLHQELKIEENFKDTSTSFLAFQLLPEEEQLWAACAGRSEVYIWSLKDLAQPPQRVPLEDCSEINCMIRVKKQVWVGSRGLGQGTPKGKIYVIDAERKTVEKELVAHMDTVRTLCSAEDRYVLSGSGREEGKVAIWKGE [DENND3] | -0.339 | -0.197
2 | MFLQYYLNEQGDRVYTLKKFDPMGQQTCSAHPARFSPDDKYSRHRITIKKRFKVLMTQQPRPVL [NOP10] | -1.06 | 0.778
3 | MKRVNSCVKSDEHVLEELETEGERQLKSLLQHQLDTSVSIEECMSKKESFAPGTMYKPFGKEAAGTMTLSQFQTLHEKDQETASLRELGLNETEILIWKSHVSGEKKTKLRATPEAIQNRLQDIEERISERQRILCLPQRFAKSKQLTRREMEIEKSLFQGADRHSFLKALYYQDEPQKKNKGDPMNNLESFYQEMIMKKRLEEFQLMRGEPFASHSLVSATSVGDSGTAESPSLLQDKGKQAAQGKGPSLHVANVIDFSPEQCWTGPKKLTQPIEFVPEDEIQRNRLSEEEIRKIPMFSSYNPGEPNKVLYLKNLSPRVTERDLVSLFARFQEKKGPPIQFRMMTGRMRGQAFITFPNKEIAWQALHLVNGYKLHGKILVIEFGKNKKQRSNLQATSLISCATGSTTEISGS [RBM41] | -0.192 | -0.0432
4 | MQRRSRGINTGLILLLSQIFHVGINNIPPVTLATLALNIWFFLNPQKPLYSSCLSVEKCYQQKDWQRLLLSPLHHADDWHLYFNMASMLWKGINLERRLGSRWFAYVITAFSVLTGVVYLLLQFAVAEFMDEPDFKRSCAVGFSGVLFALKVLNNHYCPGGFVNILGFPVPNRFACWVELVAIHLFSPGTSFAGHLAGILVGLMYTQGPLKKIMEACAGGFSSSVGYPGRQYYFNSSGSSGYQDYYPHGRPDHYEEAPRNYDTYTAGLSEEEQLERALQASLWDRGNTRNSPPPYGFHLSPEEMRRQRLHRFDSQ [RHBDD1] | -0.291 | -0.0234
5 | MALKAEGAALDCFEVTLKCEEGEDEEEAMVVAVIPRPEPMLRVTQQEKTPPPRPSPLEAGSDGCEEPKQQVSWEQEFLVGSSPGGSGRALCMVCGAEIRAPSADTARSHILEQHPHTLDLSPSEKSNILEAWSEGVALLQDVRAEQPSPPNSDSGQDAHPDPDANPDAARMPAEIVVLLDSEDNPSLPKRSRPRGLRPLELPAVPATEPGNKKPRGQRWKEPPGEEPVRKKRGRPMTKNLDPDPEPPSPDSPTETFAAPAEVRHFTDGSFPAGFVLQLFSHTQLRGPDSKDSPKDREVAEGGLPRAESPSPAPPPGLRGTLDLQVIRVRMEEPPAVSLLQDWSRHPQGTKRVGAGDTSDWPTVLSESSTTVAGKPEKGNGV [C11ORF84] | 0.38 | 0.023
6 | MAAAATAAEGVPSRGPPGEVIHLNVGGKRFSTSRQTLTWIPDSFFSSLLSGRISTLKDETGAIFIDRDPTVFAPILNFLRTKELDPRGVHGSSLLHEAQFYGLTPLVRRLQLREELDRSSCGNVLFNGYLPPPVFPVKRRNRHSLVGPQQLGGRPAPVRRSNTMPPNLGNAGLLGRMLDEKTPPSPSGQPEEPGMVRLVCGHHNWIAVAYTQFLVCYRLKEASGWQLVFSSPRLDWPIERLALTARVHGGALGEHDKMVAAATGSEILLWALQAEGGGSEIGVFHLGVPVEALFFVGNQLIATSHTGRIGVWNAVTKHWQVQEVQPITSYDAAGSFLLLGCNNGSIYYVDVQKFPLRMKDNDLLVSELYRDPAEDGVTALSVYLTPKTSDSGNWIEIAYGTSSGGVRVIVQHPETVGSGPQLFQTFTVHRSPVTKIMLSEKHLISVCADNNHVRTWSVTRFRGMISTQPGSTPLASFKILALESADGHGGCSAGNDIGPYGERDDQQVFIQKVVPSASQLFVRLSSTGQRVCSVRSVDGSPTTAFTVLECEGSRRLGSRPRRYLLTGQANGSLAMWDLTTAMDGLGQAPAGGLTEQELMEQLEHCELAPPAPSAPSWGCLPSPSPRISLTSLHSASSNTSLSGHRGSPSPPQAEARRRGGGSFVERCQELVRSGPDLRRPPTPAPWPSSGLGTPLTPPKMKLNETSF [SHKBP1] | -0.0414 | -0.00881
7 | SYNM | -0.94 | 0.752
8 | MPRCPAGAMDEGPVDLRTRPKAAGLPGAALPLRKRPLRAPSPEPAAPRGAAGLVVPLDPLRGGCDLPAVPGPPHGLARPEALYYPGALLPLYPTRAMGSPFPLVNLPTPLYPMMCPMEHPLSADIAMATRADEDGDTPLHIAVVQGNLPAVHRLVNLFQQGGRELDIYNNLRQTPLHLAVITTLPSVVRLLVTAGASPMALDRHGQTAAHLACEHRSPTCLRALLDSAAPGTLDLEARNYDGLTALHVAVNTECQETVQLLLERGADIDAVDIKSGRSPLIHAVENNSLSMVQLLLQHGANVNAQMYSGSSALHSASGRGLLPLVRTLVRSGADSSLKNCHNDTPLMVARSRRVIDILRGKATRPASTSQPDPSPDRSANTSPESSSRLSSNGLLSASPSSSPSQSPPRDPPGFPMAPPNFFLPSPSPPAFLPFAGVLRGPGRPVPPSPAPGGS [BCL3] | 0.0652 | -0.154
9 | MEEVTTCSFNSPLFRQEDDRGITYRIPALLYIPPTHTFLAFAEKRSTRRDEDALHLVLRRGLRIGQLVQWGPLKPLMEATLPGHRTMNPCPVWEQKSGCVFLFFICVRGHVTERQQIVSGRNAARLCFIYSQDAGCSWSEVRDLTEEVIGSELKHWATFAVGPGHGIQLQSGRLVIPAYTYYIPSWFFCFQLPCKTRPHSLMIYSDDLGVTWHHGRLIRPMVTVECEVAEVTGRAGHPVLYCSARTPNRCRAEALSTDHGEGFQRLALSRQLCEPPHGCQGSVVSFRPLEIPHRCQDSSSKDAPTIQQSSPGSSLRLEEEAGTPSESWLLYSHPTSRKQRVDLGIYLNQTPLEAACWSRPWILHCGPCGYSDLAALEEEGLFGCLFECGTKQECEQIAFRLFTHREILSHLQGDCTSPGRNPSQFKSN [NEU3] | -0.0555 | -0.0358
